Where two headings read alike, the source gives them in different places.
What was measured:
[1] = target: endo-Gly0-gramicidin C; assay: single-channel recording in planar lipid bilayers
[2] = target: endo-Gly0-gramicidin C; assay: single-channel recording in planar lipid bilayers; remark: listed apart in the source

average channel duration tau (dimer lifetime, 1/k-1) [1]: 862 ms | average channel duration tau (dimer lifetime, 1/k-1) [2]: 410 ms
Substance: endo-Gly0-gramicidin C (peptide)

Reference: article PMC2229230
